Earlier results on 1 substance are cited in publication PMC4581962.

A word on the Kd: it is the equilibrium constant for the complex coming apart.

This data set concerns the target IL-6Rα (Homo sapiens) (UniProt P08887).
Chain of UniProt P08887 (P08887 20-355): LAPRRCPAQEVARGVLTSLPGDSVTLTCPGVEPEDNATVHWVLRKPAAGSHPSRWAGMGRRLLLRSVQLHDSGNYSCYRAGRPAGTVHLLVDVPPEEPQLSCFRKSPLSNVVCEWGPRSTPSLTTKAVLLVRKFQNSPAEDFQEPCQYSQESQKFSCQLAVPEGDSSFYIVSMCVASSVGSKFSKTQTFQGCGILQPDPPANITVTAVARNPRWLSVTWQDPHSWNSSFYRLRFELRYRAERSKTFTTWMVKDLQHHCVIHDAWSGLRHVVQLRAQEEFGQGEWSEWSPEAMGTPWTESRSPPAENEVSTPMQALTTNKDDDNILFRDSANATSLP

For the substance IL-6 (from UniProt P05231), the dissociation constant (Kd) is 9 nM.
